Data: publication PMC2767340
Read-outs that look alike come from different tables or passages of the source.

Columns and labels:
[1] = target: ΔEspP peptide labeled with carboxyfluorescein; experiment: fluorescence polarisation
[2] = target: ΔEspP peptide labeled with carboxyfluorescein; experiment: fluorescence polarisation; remark: listed apart in the source
[3] = target: ΔEspP peptide labeled with carboxyfluorescein; experiment: fluorescence polarisation; remark: listed apart in the source
[4] = target: ΔEspP peptide labeled with carboxyfluorescein; experiment: fluorescence polarisation; remark: listed apart in the source
[5] = target: T1, FtsY (Escherichia coli), P10121; experiment: other fluorescence titration; conditions: remark: other sources report otherwise
T1 chain: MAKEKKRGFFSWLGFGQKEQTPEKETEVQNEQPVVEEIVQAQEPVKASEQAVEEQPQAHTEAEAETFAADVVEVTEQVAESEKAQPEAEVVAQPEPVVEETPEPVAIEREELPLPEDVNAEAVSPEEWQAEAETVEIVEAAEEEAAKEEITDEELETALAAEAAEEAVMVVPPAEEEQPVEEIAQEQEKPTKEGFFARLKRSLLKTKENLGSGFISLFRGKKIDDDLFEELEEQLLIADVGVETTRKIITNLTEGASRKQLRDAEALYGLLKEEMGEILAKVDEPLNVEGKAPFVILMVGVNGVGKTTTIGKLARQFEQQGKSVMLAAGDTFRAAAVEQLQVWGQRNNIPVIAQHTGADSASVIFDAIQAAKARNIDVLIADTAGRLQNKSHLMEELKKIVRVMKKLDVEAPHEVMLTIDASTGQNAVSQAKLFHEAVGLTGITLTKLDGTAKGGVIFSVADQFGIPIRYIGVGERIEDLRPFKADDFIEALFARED

Binder	Kd [1]	Kd [2]	Kd [3]	Kd [4]	fold change of the association rate with C12E8 against without (with 4.5S RNA) [5]	fold change of the association rate with ΔEspP* against without (with 4.5S RNA) [5]	fold change of the dissociation rate with C12E8 against without (with 4.5S RNA) [5]	fold change of the dissociation rate with ΔEspP* against without (with 4.5S RNA) [5]
Ffh (natural protein) MFDNLTDRLSRTLRNISGRGRLTEDNVKDTLREVRMALLEADVALPVVREFINRVKEKAVGHEVNKSLTPGQEFVKIVRNELVAAMGEENQTLNLAAQPPAVVLMAGLQGAGKTTSVGKLGKFLREKHKKKVLVVSADVYRPAAIKQLETLAEQVGVDFFPSDVGQKPVDIVNAALKEAKLKFYDVLLVDTAGRLHVDEAMMDEIKQVHASINPVETLFVVDAMTGQDAANTAKAFNEALPLTGVVLTKVDGDARGGAALSIRHITGKPIKFLGVGEKTEALEPFHPDRIASRILGMGDVLSLIEDIESKVDRAQAEKLASKLKKGDGFDLNDFLEQLRQMKNMGGMASLMGKLPGMGQIPDNVKSQMDDKVLVRMEAIINSMTMKERAKPEIIKGSRKRRIAAGCGMQVQDVNRLLKQFDDMQRMMKKMKKGGMAKMMRSMKGMMPPGFPGR	19.6 µM	5.5 µM	21.6 µM	1.5 µM	–	–	–	–
Ffh, P0AGD7 1-453 (natural protein) MFDNLTDRLSRTLRNISGRGRLTEDNVKDTLREVRMALLEADVALPVVREFINRVKEKAVGHEVNKSLTPGQEFVKIVRNELVAAMGEENQTLNLAAQPPAVVLMAGLQGAGKTTSVGKLGKFLREKHKKKVLVVSADVYRPAAIKQLETLAEQVGVDFFPSDVGQKPVDIVNAALKEAKLKFYDVLLVDTAGRLHVDEAMMDEIKQVHASINPVETLFVVDAMTGQDAANTAKAFNEALPLTGVVLTKVDGDARGGAALSIRHITGKPIKFLGVGEKTEALEPFHPDRIASRILGMGDVLSLIEDIESKVDRAQAEKLASKLKKGDGFDLNDFLEQLRQMKNMGGMASLMGKLPGMGQIPDNVKSQMDDKVLVRMEAIINSMTMKERAKPEIIKGSRKRRIAAGCGMQVQDVNRLLKQFDDMQRMMKKMKKGGMAKMMRSMKGMMPPGFPGR	–	–	–	–	70 fold	> 40 fold	23 fold	10 fold
